# The nanobody polyreactivity screen of Harvey et al. (2022)
# Test: yeast display, Sf9 membrane polyspecificity reagent, FACS + sequencing; frameworks hold sequencing errors
# Outline: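 Nanobodies came from a synthetic yeast display library in Saccharomyces cerevisiae BJ5465, induced with galactose for 36–48 hours and stained for 1 hour at 4 °C with 10% biotinylated, detergent-solubilized Sf9 membrane reagent. Cells were enriched on streptavidin microbeads and then FACS-sorted, with low and high (top ~1%) gates set on anti-HA fluorescence for expression and streptavidin fluorescence for reagent binding. Each polyreactivity label reflects the gate a clone came from. Genes were amplified by colony PCR, sequenced by MiSeq 2 × 250 and filtered by CDR length.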
row,Sequence,polyreactivity (PSR sort gate)
1,QVQLVESGGGLVQAGGSLRLSCAASGFILFPNAMGWYRQAPGKERELVAAITSGGRTNYADSVKGRFTISRDNAKNTVYLQMTSLKPEDTAVYYCAYVGYWWGYDYWGQGTQVTVSS,low polyreactivity
2,QVQLVESGGGLVQAGGSLRLSCAASGFILGGYAMGWYRQAPGKERELVAAISWSSGSTYYADSVKGRFTISRDNAKNTVYLQMNSLIPEDTAVYYCAAVGAYDYWGQGTQVTVSS,low polyreactivity
3,QVQLVESGGGLVQAGGSLRLSCAASGFILGTNAMGWYRQAPGKERELVAAISSGGGSTYYADSVMGRFTISRDNAKNTVYLQMNSQKPEDTAVYYCAADNVWGYPEDDYWGQGTQVTVSS,low polyreactivity
4,QVQLVESGGGLVQAGGSLRLSCAASGFILIQYAMGWYRQAPGKERELVAAITWSDTSTNYADSVKGRFTISRDNAKNTVYLQMNSLKPEDTAVYYCNADLYGAQDRRLDYYAEGYWGQGTQVTVSS,low polyreactivity
5,QVQLVESGGGLVQAGGSLRLSCAASGFILLDNAMGWYRQAPGKEREFVASINISGDRTFYADSVKGRFTISRDNAKNTVYLQMNSLKPEDTAVYYCAKEPGWGRRSTTAYDYWGQGTQVTVSS,low polyreactivity
6,QVQLVESGGGLVQAGGSLRLSCAASGFILPTYAMGWYRQAPGKERELVAAITRSGGSTYYADSVKGRFTISRDNAKNTVYLQMNSLKPEDTAVYYCAAQRLSASRPYGYWGQGTQVTVSS,high polyreactivity
7,QVQLVESGGGLVQAGGSLRLSCAASGFILPYYTMGWYRQAPGKERELVAAITYSGASTFYADSVKGRFTISRDNAKNTVYLQMNSLKPEDTAVYYCAKEWSGWYESPLDDGDYDYWGQGTQVTVSS,low polyreactivity
8,QVQLVESGGGLVQAGGSLRLSCAASGFILQRYAMGWYRKAPGKERELVAAITSSGGRTYYADSVKGRFTISRDNANNTVYLQMNSLKPEDTAVYYCNTVLVYYRMIKFEYWGQGTQVTVSS,high polyreactivity
9,QVQLVESGGGLVQAGGSLRLSCAASGFILQYNAMGWYRQAPGKEREFVATITGSGGSTYYADSVKGRFTISRDNAKNTVYIQMYSLKPEDTAFYYCNAETYIDLSGKFPVDYDYWGQGTQVTVSS,low polyreactivity
10,QVQLVESGGGLVQAGGSLRLSCAASGFILRGYDMGWYRQATGKERELVATITTGGSTYYADSVKGRFTISRDNAKNTVYLQMNSLKPEDTAVYYCAGRRRGSVGVGYANPYNYWGQGTQVTVSS,high polyreactivity
11,QVQLVESGGGLVQAGGSLRLSCAASGFILRYYAMGWYRQAPGKERELVAAISSGGGTYYADSVKGRFTISRDNAKNTVYLQMNSLKPEDTAVYYCAAVYWGLWHWLYTDDDGDYWGQGTQVTVSS,high polyreactivity
12,QVQLVESGGGLVQAGGSLRLSCAASGFILRYYVMGWYRQAPGKERELVAAISSSGGRTYYADSVKGRFTISRDNAKNTVYLQMNSLKPEDTGVYYCATSTYAYRRKSYFYTRPRFGYWGQGYQVTVSS,high polyreactivity
13,QVQLVESGGGLVQAGGSLRLSCAASGFILSPNTMGWYRQAPGKERALVAAISSDVSTYADSVKGRFTISRDNAKNTVYLQMNSLKPEDTAVYYCNADAFGYASYEYWGQGTQVTVSS,low polyreactivity
14,QVQLVESGGGLVQAGGSLRLSCAASGFILVFYARGWYRPAPGKERELVAAIDWSGTITYYADSVKGRFTISRDNAKNTVYLQMNSLKPEDTAVYYCAADGEPFYDFYYWGQGTQVTVSS,high polyreactivity
15,QVQLVESGGGLVQAGGSLRLSCAASGFILVGYAMGWYRKAPGKERELVAAISSGDSTNYADSVKGRFTISRDNAKNSVYLQMNSLKPEDTAVYYCAARFIFWVYDYDYWGQGTQVTLSS,low polyreactivity
16,QVQLVESGGGLVQAGGSLRLSCAASGFILYFNAMGWYRQAPGKDRELVAVISCTGVRTNYADSVKGRFTISRDNAKNTVYLQMNSLKPEDTAVYYCAAGYYSYRPRDYWGQGTQVTVSS,low polyreactivity
17,QVQLVESGGGLVQAGGSLRLSCAASGFILYGNAMGWYRQAPGKERELVAAISRRGGSTYYADSVKGRFTISRDNAKNTVYLQMNSLKPEDTALYYCAKDGPGGGTRIYDYWGQGTQVTVSS,high polyreactivity
18,QVQLVESGGGLVQAGGSLRLSCAASGFILYYYALGWYRQAPGKEWEIVAAISRNGGRTYYADSVKGRFTISRDNAKNTVYLQMISLKPEDTAVDYCNKGVSRTLSSAYEYWGQGTQVTVSS,high polyreactivity
19,QVQLVESGGGLVQAGGSLRLSCAASGFIQDYYAMGWYRHAPGKERELDAAISSGGTDTYYADSVKGRFTVSRDTAKNTVYLQMNSLKPEDTAVYYFAADSYWSAYDYWGQGTQVTVSS,low polyreactivity
20,QVQLVESGGGLVQAGGSLRLSCAASGFIRGYYDMGWYRQAPGKERELVAAISSGGRTYYADSVKGRFTISRDNAKNTVYLQMNSLKPEDTAVYYFNAYAPRRRFDYWGQGTQVTVSS,high polyreactivity
21,QVQLVESGGGLVQAGGSLRLSCAASGFISDDYAMGWYRQAPGKERELVAAISDSGVDTYYADSVKGRFTISRDNAKNTVYLQMNSLKPEDTAVYYCNKRYVIRRRGYDYWGQGTQVTVSS,low polyreactivity
22,QVQLVESGGGLVQAGGSLRLSCAASGFISGSNVMGWYRQAPGKERELVAAINWSGDNTYYADSVKGRFTISRDNAKNTVYLQMNSLKPEDTAVYYCNADVYSYATPEMDYWGQGTQVTVSS,low polyreactivity

row,Sequence,polyreactivity (PSR sort gate)
1,QVQLVESGGGLVQAGGSLRLSCAASGFISKYYAMVWYRQAPGKERELVAAITRSGTSTYYADSVKGRFTISRDNAKNTVYLQMNSLTPEDTAVYYCAAVSGGRTPRYYYWGQGTQVTVSS,high polyreactivity
2,QVQLVESGGGLVQAGGSLRLSCAASGFISRTNAMGWSRQEPGKERELVAGINSGGNTYYADSVKGRFTISRDNAKNTVYLQMNSLKPEDTADYYCAALWSLRRSRPRFDYWGQGTQVTVSS,high polyreactivity
3,QVQLVESGGGLVQAGGSLRLSCAASGFISSENAMGWYRQAPGKERELVAAISSGGSTNYADSVKGRFTISRDNAKNTVYLQMNSRKPEDTAVYYCAATLPGWYNEDDSWGQGTQVTVSS,low polyreactivity
4,QVQLVESGGGLVQAGGSLRLSCAASGFISSENAMGWYRQAPGKERELVAATSSGGSTNYADSVKGRFTISRDNAKNTVYLQMNSLKPEDTAVYYCAALFPKNLQKVGRYDYWGQGTQVTVSS,low polyreactivity
5,QVQLVESGGGLVQAGGSLRLSCAASGFISTINVMGCYRQAPGKERELVAAITYIDGSTFYADSVKGRFTISRDNAKNTVYFQMNSLKPEDTAVYYCASDLYLWGAVFLYVRSTGLDYWGQGTQVTVSS,low polyreactivity
6,QVQLVESGGGLVQAGGSLRLSCAASGFISTYYAMGWYRQAPGKERELVAAISWNGGSTYYADSVKGRFTISRDNAKNTVYLQMNSLKPEDTADYYCAAYLGKWRQFYSSDYDYWGQGTQVTVSS,low polyreactivity
7,QVQLVESGGGLVQAGGSLRLSCAASGFISVSNAMGWYRQAPGKERELVAAIRGSGGSTYYADSVKGRFTISRDNAKNTVYLQMNSLKPEDTAVYYCAATAYPRGSPPYNYWGQGTQVTVSS,high polyreactivity
8,QVQLVESGGGLVQAGGSLRLSCAASGFIVRYNAMGWYRQAPGKERELVAVITDSSDSTYYADSVKGRFTISRDNAKNTVYLQMNSLKPVDTAVYYCDTDYGYAGDYWGQGSQVTVSS,low polyreactivity
9,QVQLVESGGGLVQAGGSLRLSCAASGFIYARYAMGWYRQAPGKERELVAGISGGGGRTYYADSVKGRFTISRDNAKNTVYLQMNSLKPEDTAVYYCAATPQSRDRRFNYWGQGTQVTVSS,high polyreactivity
10,QVQLVESGGGLVQAGGSLRLSCAASGFIYDYAMGWYRQAPGKQREFVARINWSGGSTYYADSVKGRFTISRDNAKNTVYLQMNSLKPEDTAVYYCATSGWAWRTSNPYEYWGQGTQVTVSS,low polyreactivity
11,QVQLVESGGGLVQAGGSLRLSCAASGFIYGLYAMGWYRQAPGKERELVASISRRGGSTYSADSVKGRVTISRDNAKNTVYLQMNSLKPEDTAVYYCAVDIVSIRGYTYGYWGQGTQVTVSS,high polyreactivity
12,QVQLVESGGGLVQAGGSLRLSCAASGFIYHGYTMGWYSQAPGKERDLVAAITTSGTSTYYADSVKGRFTISRDNAKNTVYLQMNSLKPEDTAVYYCYDYVPGGYSRPYYYRFDHWGQGTQVTVSS,high polyreactivity
13,QVQLVESGGGLVQAGGSLRLSCAASGFIYKINAMGWYRQAPGKERELVARITSGGRTNYADSVKGRFTISRDNAKNTVYLQMDSLKPEDTAVYYCAARYLAYGPTGYLYGYNYWGQGTQVTVSS,high polyreactivity
14,QVQLVESGGGLVQAGGSLRLSCAASGFIYRVYAIGWYRQAPGKERELVAAITGNGVSTYYADSVKVRFTISRDNAKNTVYLQMNSLKPEDTAVYYCATYGRRWYSSRRLDYWGQGTQVTVSS,low polyreactivity
15,QVQLVESGGGLVQAGGSLRLSCAASGFIYSTYAMGWYRQAPGKERELVAAISWSGGRTNYADSVKGRFTISRDNAKNTVYLQMNSLKPEDTAVYYCAVGGERGARIGSNHRGSRYDYWGQGTQVTVSS,high polyreactivity
16,QVQLVESGGGLVQAGGSLRLSCAASGFIYSYAMGWYRQAPGKERELVAAISRSGGSTYYADSVKGRFTISRDNAKNTVYLQKNSLKPEDTAVYYCAALRRYPRDNIMYYYPYDYWGQGTQVTVSS,high polyreactivity
17,QVQLVESGGGLVQAGGSLRLSCAASGFKYAMGWYRQATGKERELVAAISSGGITSYADSVKGRFTISRDNAKNTVYLQMNSLKPEDTAVYYCNARLRHSQYAYYYWGQGTQVTVSS,high polyreactivity
18,QVQLVESGGGLVQAGGSLRLSCAASGFMFTRYAMGSYRQAPGKERELVAAISWIGTSTYYADSVKGRCTISRDNAKNTVFLQMNSLTPEDTAVYYCNALLYSTGRPGFYLGYDYWGQGTQVTVSS,high polyreactivity
19,QVQLVESGGGLVQAGGSLRLSCAASGFNFAFYDMGWYRQAPGKERELVAAISWGGSTYYADSVKGRFTISRDNAKNTVYLQMNRLKPEDTAVYYCAARLSRSYRYGYWGQGTQVTVSS,high polyreactivity
20,QVQLVESGGGLVQAGGSLRLSCAASGFNFGSNAMGWYRQAPGKERELVAAITYSGASTYYADSVKGRFTISRDNAKNTVYLQMNSLKPEDTAVYSCAADLTSYYGGDYWGQGTQVTVSS,low polyreactivity
21,QVQLVESGGGLVQAGGSLRLSCAASGFNFPYYAMGWYRQAPGKERALVAAIRISGGSTYYADSVKGRFTISRDNAKNTVYLQMNSLKPEDTAVYYCAADYRYRSRFYYWGQGTQVTVSS,low polyreactivity
